# According to PMC4694823, “Tumorigenesis by Meis1 overexpression is accompanied by a change of DNA target-sequence specificity which allows binding to the AP-1 element”:
# T1: Meis1;Pbx1 (mouse?;mouse?, UniProt Q60954;P41778 1-390;1-308, |)
# T1 sequence 1: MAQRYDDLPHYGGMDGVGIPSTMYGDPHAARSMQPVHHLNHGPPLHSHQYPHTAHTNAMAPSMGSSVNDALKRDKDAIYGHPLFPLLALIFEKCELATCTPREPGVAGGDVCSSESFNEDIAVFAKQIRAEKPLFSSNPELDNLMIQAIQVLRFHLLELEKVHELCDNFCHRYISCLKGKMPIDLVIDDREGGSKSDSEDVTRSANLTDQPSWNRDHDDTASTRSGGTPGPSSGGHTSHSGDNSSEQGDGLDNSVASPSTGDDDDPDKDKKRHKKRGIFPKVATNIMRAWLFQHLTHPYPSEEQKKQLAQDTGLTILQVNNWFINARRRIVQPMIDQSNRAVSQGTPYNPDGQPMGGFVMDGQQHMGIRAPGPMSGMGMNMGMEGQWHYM
# T1 sequence 2: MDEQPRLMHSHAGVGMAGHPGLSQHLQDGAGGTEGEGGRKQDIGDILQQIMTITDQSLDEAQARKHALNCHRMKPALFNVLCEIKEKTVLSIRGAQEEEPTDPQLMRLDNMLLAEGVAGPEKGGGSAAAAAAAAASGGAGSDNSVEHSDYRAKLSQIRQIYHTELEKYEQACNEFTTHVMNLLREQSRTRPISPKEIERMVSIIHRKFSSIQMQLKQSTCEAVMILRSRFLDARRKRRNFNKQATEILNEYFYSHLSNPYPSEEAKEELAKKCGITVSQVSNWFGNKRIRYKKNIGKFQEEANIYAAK
# T2: Prep1 (pKnox1);Pbx1 (mouse?;mouse?, UniProt O70477;P41778 1-344;1-308, |)
# T2 sequence 1: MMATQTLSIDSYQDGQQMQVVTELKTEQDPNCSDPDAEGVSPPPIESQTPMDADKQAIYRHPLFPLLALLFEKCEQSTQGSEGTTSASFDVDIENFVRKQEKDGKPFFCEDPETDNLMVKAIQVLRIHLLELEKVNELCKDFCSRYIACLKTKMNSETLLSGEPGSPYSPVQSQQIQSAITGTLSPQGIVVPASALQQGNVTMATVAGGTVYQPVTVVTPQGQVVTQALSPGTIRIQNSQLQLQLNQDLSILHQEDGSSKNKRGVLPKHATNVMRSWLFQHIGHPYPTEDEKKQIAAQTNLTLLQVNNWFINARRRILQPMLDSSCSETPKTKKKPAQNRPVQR
# T2 sequence 2: T1 sequence 2
# B1: OCTA+AP1 (dsDNA)
# DNA 1: ATTATAGTGATGAATCATCATGACTCATGGTCCAG
# DNA 2: CTGGACCATGAGTCATGATGATTCATCACTATAAT
# B2: AP1 (dsDNA)
# DNA 1: CATTACCATGAGTCATTGGGCTTGCTC
# DNA 2: GAGCAAGCCCAATGACTCATGGTAATG
# B3: DECA (dsDNA)
# DNA 1: AGCTGACCTCTGAGTGACAGGGTGGAATGTGA
# DNA 2: TCACATTCCACCCTGTCACTCAGAGGTCAGCT
# B4: OCTA (dsDNA)
# DNA 1: GAAAGTGATAAATAATACAAGGAAAGC
# DNA 2: GCTTTCCTTGTATTATTTATCACTTTC
# B5: AP1+DECA (dsDNA)
# DNA 1: TAAAATGCTGAGTCACTGACTGACAGCTTTAGGCT
# DNA 2: AGCCTAAAGCTGTCAGTCAGTGACTCAGCATTTTA
# Columns and labels:
# [1] = molecular target: T1, Meis1;Pbx1; test: EMSA; 15 uL reactions with 5% glycerol, 1 ug poly-dIdC, 1.3 uM ds oligo, 12 ug Meis1/Pbx1 or 7 ug Prep1/Pbx1; 30 min on ice; 5-15% native PAGE, GelRed stain; buffer; conditions: protein: recombinant;recombinant; tags: GST fusion from modified pGEX6p-2rbs; copies: 1;1; blunt
# [2] = molecular target: c-Fos;c-Jun (;, UniProt P01100;P05412 1-380;1-331, |); test: as above; conditions: protein: commercial;commercial; tags: ;; copies: 1;1; blunt
# Sequence of c-Fos;c-Jun (P01100 whole entry, chain 1 of 2, the tested form may be a part): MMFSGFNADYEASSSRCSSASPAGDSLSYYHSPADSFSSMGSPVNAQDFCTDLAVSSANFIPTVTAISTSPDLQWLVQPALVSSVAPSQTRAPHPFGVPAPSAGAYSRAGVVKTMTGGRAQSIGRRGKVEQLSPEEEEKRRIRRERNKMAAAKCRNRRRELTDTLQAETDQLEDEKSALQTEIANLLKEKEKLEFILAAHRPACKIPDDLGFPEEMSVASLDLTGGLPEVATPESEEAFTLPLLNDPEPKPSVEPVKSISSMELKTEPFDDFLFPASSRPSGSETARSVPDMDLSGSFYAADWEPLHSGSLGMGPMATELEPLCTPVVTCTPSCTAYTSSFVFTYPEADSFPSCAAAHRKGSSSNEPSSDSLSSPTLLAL
# Sequence of c-Fos;c-Jun (P05412 whole entry, chain 2 of 2, the tested form may be a part): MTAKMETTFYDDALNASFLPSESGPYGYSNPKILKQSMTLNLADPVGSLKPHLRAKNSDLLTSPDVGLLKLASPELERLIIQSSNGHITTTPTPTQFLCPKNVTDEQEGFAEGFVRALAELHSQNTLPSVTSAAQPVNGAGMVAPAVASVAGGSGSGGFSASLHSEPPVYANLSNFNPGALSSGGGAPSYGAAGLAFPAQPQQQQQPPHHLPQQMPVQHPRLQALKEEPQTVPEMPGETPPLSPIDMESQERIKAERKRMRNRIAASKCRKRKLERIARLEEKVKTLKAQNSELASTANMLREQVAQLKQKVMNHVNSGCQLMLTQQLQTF
# [3] = molecular target: T1, Meis1;Pbx1; test: EMSA; needs higher protein:DNA ratio than OCTA; 15 uL reactions with 5% glycerol, 1 ug poly-dIdC, 1.3 uM ds oligo, 12 ug Meis1/Pbx1 or 7 ug Prep1/Pbx1; 30 min on ice; 5-15% native PAGE, GelRed stain; buffer; conditions: protein: recombinant;recombinant; tags: GST fusion from modified pGEX6p-2rbs; copies: 1;1; blunt
# [4] = molecular target: T2, Prep1 (pKnox1);Pbx1; test: EMSA; binds also at low protein:DNA ratio; AP1 oligo taken as the only printed single AP1 oligo; 15 uL reactions with 5% glycerol, 1 ug poly-dIdC, 1.3 uM ds oligo, 12 ug Meis1/Pbx1 or 7 ug Prep1/Pbx1; 30 min on ice; 5-15% native PAGE, GelRed stain; buffer; conditions: protein: recombinant;recombinant; tags: GST fusion from modified pGEX6p-2rbs; copies: 1;1; blunt
# [5] = molecular target: T2, Prep1 (pKnox1);Pbx1; test: EMSA; 15 uL reactions with 5% glycerol, 1 ug poly-dIdC, 1.3 uM ds oligo, 12 ug Meis1/Pbx1 or 7 ug Prep1/Pbx1; 30 min on ice; 5-15% native PAGE, GelRed stain; buffer; conditions: protein: recombinant;recombinant; tags: GST fusion from modified pGEX6p-2rbs; copies: 1;1; blunt
# [6] = molecular target: T1, Meis1;Pbx1; test: EMSA; binds at lower protein:DNA ratio than AP1; 15 uL reactions with 5% glycerol, 1 ug poly-dIdC, 1.3 uM ds oligo, 12 ug Meis1/Pbx1 or 7 ug Prep1/Pbx1; 30 min on ice; 5-15% native PAGE, GelRed stain; buffer; conditions: protein: recombinant;recombinant; tags: GST fusion from modified pGEX6p-2rbs; copies: 1;1; blunt
binder,measurement,setting,value
B1,binding result,[1],binds
B2,binding result,[2],binds
same,binding result,[3],binds
same,binding result,[4],binds
B3,binding result,[5],binds
B4,binding result,[6],binds
B5,binding result,[5],binds
